Where two headings read alike, the source gives them in different places.
Assays:
Assay in all cases: cell-based or functional assay
[1] = target: HA of B/Malaysia/2506/2004 (victoria) (influenza B virus)
[2] = target: HA of B/Sichuan/379/99 (yamagata) (influenza B virus)
[3] = target: HA of A/Wilson Smith N/33 (H1N1) (influenza A virus, UniProt P03454 18-565)
[4] = target: HA of A/Beijing/262/95 (H1N1) (influenza A virus)
[5] = target: HA of A/California/07/2009 (H1N1) (influenza A virus)
[6] = target: HA of A/Hong Kong/8/68 (H3N2) (influenza A virus)
[7] = target: HA of A/Victoria/3/75 (H3N2) (influenza A virus)
[8] = target: HA of A/Shan dong/9/93 (H3N2) (influenza A virus)
[9] = target: HA of ca A/Panama/2007/99 (H3N2) (influenza A virus)
[10] = target: HA of ca B/Beijing/243/97 (victoria) (influenza B virus)
[11] = target: HA of B/Hong Kong/330/2001 (victoria) (influenza B virus)
[12] = target: HA of B/Malaysia/2506/2004 (victoria) (influenza B virus); remark: listed apart in the source
[13] = target: HA of B/Ohio/1/2005 (victoria) (influenza B virus)
[14] = target: HA of B/Sichuan/379/99 (yamagata) (influenza B virus); remark: listed apart in the source
[15] = target: HA of B/Florida/4/2006 (yamagata) (influenza B virus)
HA of B/Lee/40 [16] = target: T1, HA of B/Lee/40 (influenza B virus, UniProt P03460 16-584)
[17] = target: HA of ca B/Ann Arbor/1/66 (influenza B virus)
HA of B/Hong Kong/5/72 [18] = target: HA of B/Hong Kong/5/72 (influenza B virus)
[19] = target: HA of ca B/Beijing/243/97 (victoria) (influenza B virus); remark: listed apart in the source
[20] = target: HA of B/Hong Kong/330/2001 (victoria) (influenza B virus); remark: listed apart in the source
[21] = target: HA of B/Malaysia/2506/2004 (victoria) (influenza B virus); remark: listed apart in the source
[22] = target: HA of B/Ohio/1/2005 (victoria) (influenza B virus); remark: listed apart in the source
[23] = target: HA of ca B/Brisbane/60/2008 (victoria) (influenza B virus)
[24] = target: HA of B/Nevada/3/2011 (victoria) (influenza B virus)
[25] = target: HA of B/New Jersey/01/2012 (victoria) (influenza B virus)
[26] = target: HA of B/Texas/2/2013 (victoria) (influenza B virus)
[27] = target: HA of B/Wisconsin/5/2013 (victoria) (influenza B virus)
[28] = target: HA of B/Yamagata/16/88 (yamagata) (influenza B virus)
[29] = target: HA of ca B/Georgia/02/98 (yamagata) (influenza B virus)
[30] = target: HA of B/Sichuan/379/99 (yamagata) (influenza B virus); remark: listed apart in the source
[31] = target: HA of ca B/Victoria/504/2000 (yamagata) (influenza B virus)
[32] = target: HA of B/Florida/4/2006 (yamagata) (influenza B virus); remark: listed apart in the source
[33] = target: HA of B/Wisconsin/1/2010 (yamagata) (influenza B virus)
[34] = target: HA of B/Arizona/8/2013 (yamagata) (influenza B virus)
[35] = target: HA of B/Phuket/3073/2013 (yamagata) (influenza B virus)
HA of B/Lee/40 [36] = target: T1, HA of B/Lee/40; remark: listed apart in the source
[37] = target: HA of ca B/Ann Arbor/1/66 (influenza B virus); remark: listed apart in the source
HA of B/Hong Kong/5/72 [38] = target: HA of B/Hong Kong/5/72 (influenza B virus); remark: listed apart in the source
[39] = target: HA of ca B/Beijing/243/97 (victoria) (influenza B virus); remark: listed apart in the source
[40] = target: HA of B/Hong Kong/330/2001 (victoria) (influenza B virus); remark: listed apart in the source
[41] = target: HA of B/Malaysia/2506/2004 (victoria) (influenza B virus); remark: listed apart in the source
[42] = target: HA of B/Ohio/1/2005 (victoria) (influenza B virus); remark: listed apart in the source
[43] = target: HA of ca B/Brisbane/60/2008 (victoria) (influenza B virus); remark: listed apart in the source
[44] = target: HA of B/Yamagata/16/88 (yamagata) (influenza B virus); remark: listed apart in the source
[45] = target: HA of ca B/Ann Arbor/2/94 (yamagata) (influenza B virus)
[46] = target: HA of ca B/Georgia/02/98 (yamagata) (influenza B virus); remark: listed apart in the source
[47] = target: HA of B/Yamanashi/166/98 (yamagata) (influenza B virus)
[48] = target: HA of ca B/Johannesburg/5/99 (yamagata) (influenza B virus)
[49] = target: HA of B/Sichuan/379/99 (yamagata) (influenza B virus); remark: listed apart in the source
[50] = target: HA of ca B/Victoria/504/2000 (yamagata) (influenza B virus); remark: listed apart in the source
[51] = target: HA of B/Shanghai/361/02 (yamagata) (influenza B virus)
[52] = target: HA of B/Florida/4/2006 (yamagata) (influenza B virus); remark: listed apart in the source

T1 sequence (P03460 16-584 limits assumed): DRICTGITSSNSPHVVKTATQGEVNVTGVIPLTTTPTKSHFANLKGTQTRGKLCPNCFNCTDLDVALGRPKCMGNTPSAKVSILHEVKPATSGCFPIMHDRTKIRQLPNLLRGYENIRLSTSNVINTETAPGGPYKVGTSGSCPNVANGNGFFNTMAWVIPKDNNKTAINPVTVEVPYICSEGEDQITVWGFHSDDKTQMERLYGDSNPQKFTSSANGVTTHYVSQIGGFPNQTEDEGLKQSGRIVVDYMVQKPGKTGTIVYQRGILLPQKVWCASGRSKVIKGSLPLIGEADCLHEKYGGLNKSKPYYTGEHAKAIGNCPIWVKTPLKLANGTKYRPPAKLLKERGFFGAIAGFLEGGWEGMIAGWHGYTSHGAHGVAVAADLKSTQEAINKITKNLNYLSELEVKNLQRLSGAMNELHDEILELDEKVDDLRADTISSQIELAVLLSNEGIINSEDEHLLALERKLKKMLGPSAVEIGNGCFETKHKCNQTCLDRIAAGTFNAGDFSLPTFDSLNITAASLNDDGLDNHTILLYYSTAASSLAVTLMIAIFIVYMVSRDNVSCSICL
Chain of HA of A/Wilson Smith N/33 (H1N1) (P03454 18-565 limits assumed): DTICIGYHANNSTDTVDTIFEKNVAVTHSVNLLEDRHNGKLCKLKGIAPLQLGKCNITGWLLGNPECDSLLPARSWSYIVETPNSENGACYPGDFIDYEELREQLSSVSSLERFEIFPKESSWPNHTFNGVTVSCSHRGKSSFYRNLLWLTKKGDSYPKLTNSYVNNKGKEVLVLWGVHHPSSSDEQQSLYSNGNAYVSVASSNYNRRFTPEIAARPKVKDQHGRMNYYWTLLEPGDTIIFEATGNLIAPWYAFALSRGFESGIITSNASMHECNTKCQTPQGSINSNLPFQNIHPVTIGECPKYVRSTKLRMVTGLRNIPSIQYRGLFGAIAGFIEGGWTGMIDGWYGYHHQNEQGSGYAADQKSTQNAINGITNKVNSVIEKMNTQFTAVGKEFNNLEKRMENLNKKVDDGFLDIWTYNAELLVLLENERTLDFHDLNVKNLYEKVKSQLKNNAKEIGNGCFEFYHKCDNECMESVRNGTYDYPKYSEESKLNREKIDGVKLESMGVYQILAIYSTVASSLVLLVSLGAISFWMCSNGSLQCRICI

B1: FBC39 IgG (antibody, V domains shown)
VH: EVQLVVSGGGLVKPGGSLRLSCAASGLSFLNAWMSWVRQAPGKGLEWVGRIKSNTDGGTTDYAAPVKGRFSISRDDSKNMLFLHMSSLRTEDTAVYYCATDGPYSDDFRSGYAARYRYFGMDVWGQGTTVTVSS
VL: DIQMTQSPSSVSASVGDRVTITCRASQDISTWLAWYQQKPGKAPKLLIYAASSLQSGVPSRFSGSGSGTDFTLTISSLQPEDFATYFCQQANSFPPTFGQGTKLEIK
ADCC: NK cell killing of infected A549 cells (LDH release), IC50 [1]: 1.45 nM
ADCC: NK cell killing of infected A549 cells (LDH release), IC50 [2]: 0.85 nM
Neutralization (IC50) [3]: > 1000 nM
Neutralization (IC50) [4]: > 1000 nM
Neutralization (IC50) [5]: > 1000 nM
Neutralization (IC50) [6]: > 1000 nM
Neutralization (IC50) [7]: > 1000 nM
Neutralization (IC50) [8]: > 1000 nM
Neutralization (IC50) [9]: > 1000 nM
Neutralization (IC50) [10]: 0.4 nM
Neutralization (IC50) [11]: 1 nM
Neutralization (IC50) [12]: 1 nM
Neutralization (IC50) [13]: 0.6 nM
Neutralization (IC50) [14]: 0.2 nM
Neutralization (IC50) [15]: 0.4 nM
Neutralization (IC50) (HA of B/Lee/40 [16]): 0.1 nM
Neutralization (IC50) [17]: 0.6 nM
Neutralization (IC50) (HA of B/Hong Kong/5/72 [18]): 0.4 nM
Neutralization (IC50) [19]: 0.9 nM
Neutralization (IC50) [20]: 1.8 nM
Neutralization (IC50) [21]: 1.2 nM
Neutralization (IC50) [22]: 0.5 nM
Neutralization (IC50) [23]: 1.5 nM
Neutralization (IC50) [24]: 1.2 nM
Neutralization (IC50) [25]: 0.7 nM
Neutralization (IC50) [26]: 0.4 nM
Neutralization (IC50) [27]: 0.5 nM
Neutralization (IC50) [28]: 0.1 nM
Neutralization (IC50) [29]: 0.1 nM
Neutralization (IC50) [30]: 0.3 nM
Neutralization (IC50) [31]: 0.2 nM
Neutralization (IC50) [32]: 0.2 nM
Neutralization (IC50) [33]: 0.1 nM
Neutralization (IC50) [34]: 0.1 nM
Neutralization (IC50) [35]: 0.2 nM
Hemagglutination Inhibition Titer (HA of B/Lee/40 [36]): 5 nM
Hemagglutination Inhibition Titer [37]: 6 nM
Hemagglutination Inhibition Titer (HA of B/Hong Kong/5/72 [38]): 8 nM
Hemagglutination Inhibition Titer [39]: 14 nM
Hemagglutination Inhibition Titer [40]: 16 nM
Hemagglutination Inhibition Titer [41]: 20 nM
Hemagglutination Inhibition Titer [42]: 24 nM
Hemagglutination Inhibition Titer [43]: 20 nM
Hemagglutination Inhibition Titer [44]: 11 nM
Hemagglutination Inhibition Titer [45]: 6 nM
Hemagglutination Inhibition Titer [46]: 16 nM
Hemagglutination Inhibition Titer [47]: 13 nM
Hemagglutination Inhibition Titer [48]: 18 nM
Hemagglutination Inhibition Titer [49]: 10 nM
Hemagglutination Inhibition Titer [50]: 16 nM
Hemagglutination Inhibition Titer [51]: 16 nM
Hemagglutination Inhibition Titer [52]: 7 nM
